Reference: US20110044980A1 (AbbVie / Abbott, published 2011)

T1: NKG2D (human, UniProt P26718 1-216)
T1 construct: whole, on cells; also called NKGD
T1 sequence (looked up): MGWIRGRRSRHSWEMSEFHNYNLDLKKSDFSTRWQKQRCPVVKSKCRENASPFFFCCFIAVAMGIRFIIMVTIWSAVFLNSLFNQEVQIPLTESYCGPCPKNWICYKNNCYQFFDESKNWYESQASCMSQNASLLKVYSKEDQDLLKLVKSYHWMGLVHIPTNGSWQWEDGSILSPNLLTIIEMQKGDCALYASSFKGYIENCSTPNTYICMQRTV


Assays:
NKG2D [1] = target: T1, NKG2D; experiment: flow cytometry (FACSCalibur), activated NK cells, 10 ug/ml, R-PE GMFI on CD56+ live cells
NKG2D [2] = target: T1, NKG2D; experiment: flow cytometry (FACSCanto), cells carrying the target (line not given), 2 ug/mL

Binder | FACS Geometric Mean C-terminal (NKG2D [1]) | FACS Geometric Mean N-terminal (NKG2D [1]) | further results
DVD1215 (bispecific antibody, DVD-Ig; dual variable domains only; Outer AB064, inner AB121; also called DVD1215H + DVD1215L) VH: QVQLQESGPGLVKPSQTLSLTCTVSGYSISSDFAWNWIRQPPGKGLEWMGYISYSGNTRYQPSLKSRITISRDTSKNQFFLKLNSVTAADTATYYCVTAGRGFPYWGQGTLVTVSSASTKGPSVFPLAPQVQLVESGGGLVKPGGSLRLSCAASGFTFSSYGMHWVRQAPGKGLEWVAFIRYDGSNKYYADSVKGRFTISRDNSKNTLYLQMNSLRAEDTAVYYCAKDRGLGDGTYFDYWGQGTTVTVSS VL: DIQMTQSPSSMSVSVGDRVTITCHSSQDINSNIGWLQQKPGKSFKGLIYHGTNLDDGVPSRFSGSGSGTDYTLTISSLQPEDFATYYCVQYAQFPWTFGGGTKLEIKRTVAAPSVFIFPPQSALTQPASVSGSPGQSITISCSGSSSNIGNNAVNWYQQLPGKAPKLLIYYDDLLPSGVSDRFSGSKSGTSAFLAISGLQSEDEADYYCAAWDDSLNGPVFGGGTKLTVLG | 31.7 | – | –
DVD1052 (bispecific antibody, DVD-Ig; the entries are the dual variable domains (outer VD - linker - inner VD) without constant domains; Outer AB121, inner AB001; also called NKG2D / CD-20 DVD-Ig; DVD1052H + DVD1052L) VH: QVQLVESGGGLVKPGGSLRLSCAASGFTFSSYGMHWVRQAPGKGLEWVAFIRYDGSNKYYADSVKGRFTISRDNSKNTLYLQMNSLRAEDTAVYYCAKDRGLGDGTYFDYWGQGTTVTVSSASTKGPSVFPLAPQVQLQQPGAELVKPGASVKMSCKASGYTFTSYNMHWVKQTPGRGLEWIGAIYPGNGDTSYNQKFKGKATLTADKSSSTAYMQLSSLTSEDSAVYYCARSTYYGGDWYFNVWGAGTTVTVSA VL: QSALTQPASVSGSPGQSITISCSGSSSNIGNNAVNWYQQLPGKAPKLLIYYDDLLPSGVSDRFSGSKSGTSAFLAISGLQSEDEADYYCAAWDDSLNGPVFGGGTKLTVLGQPKAAPSVTLFPPQIVLSQSPAILSPSPGEKVTMTCRASSSVSYIHWFQQKPGSSPKPWIYATSNLASGVPVRFSGSGSGTSYSLTISRVEAEDAATYYCQQWTSNPPTFGGGTKLEIKR | – | 36.4 | –
AB121 (antibody, V domains shown, also called NKGD (KYK-2.0); anti-NKG2D parent antibody) VH: QVQLVESGGGLVKPGGSLRLSCAASGFTFSSYGMHWVRQAPGKGLEWVAFIRYDGSNKYYADSVKGRFTISRDNSKNTLYLQMNSLRAEDTAVYYCAKDRGLGDGTYFDYWGQGTTVTVSS VL: QSALTQPASVSGSPGQSITISCSGSSSNIGNNAVNWYQQLPGKAPKLLIYYDDLLPSGVSDRFSGSKSGTSAFLAISGLQSEDEADYYCAAWDDSLNGPVFGGGTKLTVLG | – | – | FACS Geometric Mean (NKG2D [1]): 31.1; FACS Geometric Mean (NKG2D [2]): 284

Second part, led by results:

FACS Geometric Mean C-terminal (NKG2D [1]) | FACS Geometric Mean N-terminal (NKG2D [1]) | Binder | further results
21.2 | – | DVD1055 (bispecific antibody, DVD-Ig; dual variable domains only; Outer AB006, inner AB121; also called DVD1055H + DVD1055L) VH: QVQLQQSGAELVRPGSSVKISCKASGYAFSSYWMNWVKQRPGQGLEWIGQIWPGDGDTNYNGKFKGKATLTADESSSTAYMQLSSLASEDSAVYFCARRETTTVGRYYYAMDYWGQGTSVTVSSASTKGPSVFPLAPQVQLVESGGGLVKPGGSLRLSCAASGFTFSSYGMHWVRQAPGKGLEWVAFIRYDGSNKYYADSVKGRFTISRDNSKNTLYLQMNSLRAEDTAVYYCAKDRGLGDGTYFDYWGQGTTVTVSS VL: DILLTQTPASLAVSLGQRATISCKASQSVDYDGDSYLNWYQQIPGQPPKLLIYDASNLVSGIPPRFSGSGSGTDFTLNIHPVEKVDAATYHCQQSTEDPWTFGGGTKLEIKRTVAAPSVFIFPPQSALTQPASVSGSPGQSITISCSGSSSNIGNNAVNWYQQLPGKAPKLLIYYDDLLPSGVSDRFSGSKSGTSAFLAISGLQSEDEADYYCAAWDDSLNGPVFGGGTKLTVLG | –
31.7 | – | DVD1053 (bispecific antibody, DVD-Ig; dual variable domains only; Outer AB001, inner AB121; also called CD-20 / NKG2D DVD-Ig; DVD1053H + DVD1053L) VH: QVQLQQPGAELVKPGASVKMSCKASGYTFTSYNMHWVKQTPGRGLEWIGAIYPGNGDTSYNQKFKGKATLTADKSSSTAYMQLSSLTSEDSAVYYCARSTYYGGDWYFNVWGAGTTVTVSAASTKGPSVFPLAPQVQLVESGGGLVKPGGSLRLSCAASGFTFSSYGMHWVRQAPGKGLEWVAFIRYDGSNKYYADSVKGRFTISRDNSKNTLYLQMNSLRAEDTAVYYCAKDRGLGDGTYFDYWGQGTTVTVSS VL: QIVLSQSPAILSPSPGEKVTMTCRASSSVSYIHWFQQKPGSSPKPWIYATSNLASGVPVRFSGSGSGTSYSLTISRVEAEDAATYYCQQWTSNPPTFGGGTKLEIKRTVAAPSVFIFPPQSALTQPASVSGSPGQSITISCSGSSSNIGNNAVNWYQQLPGKAPKLLIYYDDLLPSGVSDRFSGSKSGTSAFLAISGLQSEDEADYYCAAWDDSLNGPVFGGGTKLTVLG | –
– | 33.8 | DVD1214 (bispecific antibody, DVD-Ig; dual variable domains only; Outer AB121, inner AB064; also called DVD1214H + DVD1214L) VH: QVQLVESGGGLVKPGGSLRLSCAASGFTFSSYGMHWVRQAPGKGLEWVAFIRYDGSNKYYADSVKGRFTISRDNSKNTLYLQMNSLRAEDTAVYYCAKDRGLGDGTYFDYWGQGTTVTVSSASTKGPSVFPLAPQVQLQESGPGLVKPSQTLSLTCTVSGYSISSDFAWNWIRQPPGKGLEWMGYISYSGNTRYQPSLKSRITISRDTSKNQFFLKLNSVTAADTATYYCVTAGRGFPYWGQGTLVTVSS VL: QSALTQPASVSGSPGQSITISCSGSSSNIGNNAVNWYQQLPGKAPKLLIYYDDLLPSGVSDRFSGSKSGTSAFLAISGLQSEDEADYYCAAWDDSLNGPVFGGGTKLTVLGQPKAAPSVTLFPPDIQMTQSPSSMSVSVGDRVTITCHSSQDINSNIGWLQQKPGKSFKGLIYHGTNLDDGVPSRFSGSGSGTDYTLTISSLQPEDFATYYCVQYAQFPWTFGGGTKLEIKR | –
– | 28.3 | DVD1054 (bispecific antibody, DVD-Ig; dual variable domains only; Outer AB121, inner AB006; also called DVD1054H + DVD1054L) VH: QVQLVESGGGLVKPGGSLRLSCAASGFTFSSYGMHWVRQAPGKGLEWVAFIRYDGSNKYYADSVKGRFTISRDNSKNTLYLQMNSLRAEDTAVYYCAKDRGLGDGTYFDYWGQGTTVTVSSASTKGPSVFPLAPQVQLQQSGAELVRPGSSVKISCKASGYAFSSYWMNWVKQRPGQGLEWIGQIWPGDGDTNYNGKFKGKATLTADESSSTAYMQLSSLASEDSAVYFCARRETTTVGRYYYAMDYWGQGTSVTVSS VL: QSALTQPASVSGSPGQSITISCSGSSSNIGNNAVNWYQQLPGKAPKLLIYYDDLLPSGVSDRFSGSKSGTSAFLAISGLQSEDEADYYCAAWDDSLNGPVFGGGTKLTVLGQPKAAPSVTLFPPDILLTQTPASLAVSLGQRATISCKASQSVDYDGDSYLNWYQQIPGQPPKLLIYDASNLVSGIPPRFSGSGSGTDFTLNIHPVEKVDAATYHCQQSTEDPWTFGGGTKLEIKR | –
